Values of other authors as cited in patent publication US20110110932A1, “COMBINATION TREATMENT FOR OCULAR DISEASES” (OPHTHOTECH CORP., priority 2009, published 2011).
Where two headings read alike, the source gives them in different places.

Key:
[1] = system: choroidal neovascularization (CNV); settings: rabbits, CNV induced by VEGF/bFGF pellets
[2] = system: choroidal neovascularization (CNV); settings: cynomolgus monkeys, laser induced CNV
α5β1 integrin = α5β1 integrin (Homo sapiens, UniProt P05556+P08648)
Chain of α5β1 integrin (P08648 42-894 limits assumed): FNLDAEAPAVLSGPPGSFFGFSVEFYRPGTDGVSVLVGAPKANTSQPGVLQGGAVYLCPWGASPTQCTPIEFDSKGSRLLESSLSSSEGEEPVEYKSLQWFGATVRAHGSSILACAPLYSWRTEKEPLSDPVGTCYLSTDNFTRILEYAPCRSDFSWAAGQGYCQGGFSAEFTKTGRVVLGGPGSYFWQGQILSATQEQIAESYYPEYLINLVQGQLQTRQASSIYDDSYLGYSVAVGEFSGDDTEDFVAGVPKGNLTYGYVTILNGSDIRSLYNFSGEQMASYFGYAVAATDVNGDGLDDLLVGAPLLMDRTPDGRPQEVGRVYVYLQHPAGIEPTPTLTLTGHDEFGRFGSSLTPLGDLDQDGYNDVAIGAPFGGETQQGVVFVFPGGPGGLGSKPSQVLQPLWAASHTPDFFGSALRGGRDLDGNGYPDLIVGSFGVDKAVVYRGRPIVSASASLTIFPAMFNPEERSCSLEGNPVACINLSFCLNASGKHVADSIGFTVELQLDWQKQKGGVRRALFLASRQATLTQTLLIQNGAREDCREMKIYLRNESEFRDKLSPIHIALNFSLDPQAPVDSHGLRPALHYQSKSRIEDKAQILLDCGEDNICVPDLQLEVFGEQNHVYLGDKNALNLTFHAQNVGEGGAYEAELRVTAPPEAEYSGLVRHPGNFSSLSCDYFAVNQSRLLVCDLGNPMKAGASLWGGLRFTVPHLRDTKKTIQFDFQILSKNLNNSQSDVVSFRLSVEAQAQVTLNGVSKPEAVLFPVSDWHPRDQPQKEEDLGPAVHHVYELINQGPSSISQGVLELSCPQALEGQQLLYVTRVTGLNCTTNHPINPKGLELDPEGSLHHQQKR
Chain of α5β1 integrin (P08648 895-1049 limits assumed): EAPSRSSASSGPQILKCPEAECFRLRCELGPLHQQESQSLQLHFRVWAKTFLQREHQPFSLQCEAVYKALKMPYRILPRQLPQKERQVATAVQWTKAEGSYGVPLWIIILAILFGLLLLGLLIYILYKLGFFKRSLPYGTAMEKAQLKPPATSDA
Chain of α5β1 integrin (P05556 21-798): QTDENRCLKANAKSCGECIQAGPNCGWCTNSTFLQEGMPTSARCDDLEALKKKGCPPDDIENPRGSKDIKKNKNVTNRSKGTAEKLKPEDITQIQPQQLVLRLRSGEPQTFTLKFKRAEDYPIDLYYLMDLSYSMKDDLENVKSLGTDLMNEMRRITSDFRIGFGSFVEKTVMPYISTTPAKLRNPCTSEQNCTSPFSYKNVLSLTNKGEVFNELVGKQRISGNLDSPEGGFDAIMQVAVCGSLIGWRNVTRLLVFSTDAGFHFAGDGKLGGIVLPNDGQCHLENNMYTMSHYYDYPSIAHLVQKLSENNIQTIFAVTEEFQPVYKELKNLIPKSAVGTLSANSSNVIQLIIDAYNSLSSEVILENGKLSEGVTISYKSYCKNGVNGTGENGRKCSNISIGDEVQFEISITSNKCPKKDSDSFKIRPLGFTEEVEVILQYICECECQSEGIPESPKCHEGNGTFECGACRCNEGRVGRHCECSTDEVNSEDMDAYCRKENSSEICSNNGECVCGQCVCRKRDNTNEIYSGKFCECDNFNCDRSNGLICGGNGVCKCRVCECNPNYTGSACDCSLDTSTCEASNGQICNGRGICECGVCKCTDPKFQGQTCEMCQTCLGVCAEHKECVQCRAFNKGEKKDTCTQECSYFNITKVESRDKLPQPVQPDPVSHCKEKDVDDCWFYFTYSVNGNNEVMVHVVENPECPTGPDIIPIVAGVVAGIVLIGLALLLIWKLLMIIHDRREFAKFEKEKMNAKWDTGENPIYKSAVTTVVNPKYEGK

B1: F200: Fab fragment of volociximab; heavy chain SEQ ID NO: 6, light chain same as M200 (antibody, chains of the INN, looked up, V domains shown)
VH: QVQLKESGPGLVAPSQSLSITCTISGFSLTDYGVHWVRQPPGKGLEWLVVIWSDGSSTYNSALKSRMTIRKDNSKSQVFLIMNSLQTDDSAMYYCARHGTYYGMTTTGDALDYWGQGTSVTVSS
VL: QIVLTQSPAIMSASLGERVTMTCTASSSVSSNYLHWYQQKPGSAPNLWIYSTSNLASGVPARFSGSGSGTSYSLTISSMEAEDAATYYCHQYLRSPPTFGGGTKLEIK
modifications: Fab
Which anti-angiogenic activity [1] does the source give for B1 here?
The anti-angiogenic activity was “significant anti-angiogenic activity”.

What about the anti-angiogenic activity [2] of the same molecule?
The anti-angiogenic activity was “significant anti-angiogenic activity”.

And the “α5β1 integrin antagonistic activity” value (α5β1 integrin)?
Its value is “shown to have α5β1 integrin antagonistic activity”.
